Key:
[1] = tested on: COS cells; assay: cGMP accumulation in transfected COS cells as bioassay for NO; type: cell-based; settings: eNOS alone or eNOS with Akt construct
Source text: (§1) Cell Transfections: The bovine eNOS, human iNOS, rat nNOS cDNAs in pcDNA3 and HA-tagged wild-type Akt, Akt (K179M) or myr-Akt in pCMV6 were generated by standard cloning methods. The myr-nNOS in pcDNA3 was generated by PCR, incorporating a new amino terminus containing the eNOS N-myristoylation consensus site (MGNLKSVG, SEQ ID NO:1) fused in frame to the second amino acid of the nNOS coding sequence. […] Mutation of the putative Akt phosphorylation sites in eNOS were generated using the Quick Change site-directed mutagenesis kit (Stratagene) according to the manufacturers instructions. All mutants were verified by DNA sequencing. COS-7 cells were plated (100 mm dish) and transfected with the NOS (7.5-30 mg) and Akt (1 mg) plasmids using calcium phosphate. To balance all transfections, the expression vector for β-galactosidase cDNA was used. Twenty-four to forty-eight hours after transfection, the expression of appropriate proteins (40-80 mg) were confirmed by Western blot analysis using eNOS mAb (9D10, Zymed), HA mAb (12CA5, Boehringer Mannheim), iNOS pAb (Zymed Laboratories) or nNOS mAb (Zymed Laboratories).
NO release from transfected COS cells: 24-48 hrs after transfection, media was processed for the measurement of nitrite (NO2^−), the stable breakdown product of NO in aqueous solution, by NO specific chemiluminescence as described (Sessa et al., 1995). […]

[2] = tested on: Akt; assay: 32P phosphorylation of eNOS in intact transfected COS cells; type: cell-based; settings: intact COS cells, 32P-orthophosphate
Description: Phosphorylation studies in vivo and in vitro: For in vivo phosphorylation studies, COS cells were transfected with the cDNAs for wild-type or S635, 1179A eNOS and HA-Akt overnight. 36 hrs after transfection, cells were placed into dialyzed serum replete, phosphate-free Dulbecco's minimum essential medium supplemented with 80 μCi/ml of ^32P orthophosphoric acid for 3 hr. Some cells were pretreated with wortmannin (500 nM) in the phosphate-free media for 1 hr and during the labeling.

[3] = DCIP reduction by purified eNOS; type: biochemical; settings: FIG. 6B
Description: Assays for Reductase Activity—NADPH-cytochrome c reductase activity and 2,6-dichlorophenolindophenol (DCIP) reduction were measured as a change in absorbance at 550 nm as described previously by Martasek et al. (1999) and Masters et al. (1967) using an extinction coefficient of 0.021 μM^−1 cm^−1 for both cytochrome c and DCIP. Briefly, a reaction mixture (1 ml) contained either cytochrome c (90 μM); DCIP (36 μM), HEPES buffer (50 mM) at pH 7.6, NaCl (250 mM), NADPH (100 μM), calmodulin (120 nM), and CaCl2 (200 μM); or other substances as indicated. The reaction was monitored for 60 s (at 23° C.) after the addition of eNOS. When inactivation of reductase activity was determined by the addition of EGTA (200-800 μM), chelator was added 1 min after initiation of the reaction and monitored for an additional 1 min. The reaction contained HEPES buffer (50 mM) at pH 7.6, CaM (120 nM), and CaCl2 (200 μM) and was initiated with NADPH (100 μM). No NaCl was added in experiments that examined EGTA inactivation of eNOS to mimic the conditions used in the hemoglobin capture experiments. […] Determination of the calcium EC50 for eNOS was performed as described above for the hemoglobin capture assay.

[4] = tested on: COS-7 cells; assay: NO release (NO2−, chemiluminescence) from transfected COS cells; type: cell-based; settings: NOS construct co-transfected with Akt
Source text: as §1
NO release from transfected COS cells: 24-48 hrs after transfection, media was processed for the measurement of nitrite (NO2^−), the stable breakdown product of NO in aqueous solution, by NO specific chemiluminescence as described (Sessa et al., 1995). Media was deproteinized and samples containing NO2^− were refluxed in glacial acetic acid containing sodium iodide. […] In all experiments, NO2^− release was inhibitable by a NOS inhibitor. In addition, NO2^−-release from cells transfected with the β-galactosidase cDNA was subtracted to control for background levels of NO2^− found in serum or media. In some experiments, cGMP accumulation in COS was used as a bioassay for the production of NO as described.

Molecule | cGMP accumulation [1] [pmol cGMP/mg protein] | enhancement in phosphorylation on co-expression of Akt relative to non-stimulated cells [2] [fold] | DCIP reduction activity compared with wild type eNOS [3] | Akt dependent NO release / activation of NOS construct [4]
Wild type: Wild type bovine endothelial nitric oxide synthase (eNOS) (protein, UniProt P29473 2-1205, looked up) Nitric oxide synthase 3: GNLKSVGQEPGPPCGLGLGLGLGLCGKQGPASPAPEPSRAPAPATPHAPDHSPAPNSPTLTRPPEGPKFPRVKNWELGSITYDTLCAQSQQDGPCTPRCCLGSLVLPRKLQTRPSPGPPPAEQLLSQARDFINQYYSSIKRSGSQAHEERLQEVEAEVASTGTYHLRESELVFGAKQAWRNAPRCVGRIQWGKLQVFDARDCSSAQEMFTYICNHIKYATNRGNLRSAITVFPQRAPGRGDFRIWNSQLVRYAGYRQQDGSVRGDPANVEITELCIQHGWTPGNGRFDVLPLLLQAPDEAPELFVLPPELVLEVPLEHPTLEWFAALGLRWYALPAVSNMLLEIGGLEFSAAPFSGWYMSTEIGTRNLCDPHRYNILEDVAVCMDLDTRTTSSLWKDKAAVEINLAVLHSFQLAKVTIVDHHAATVSFMKHLDNEQKARGGCPADWAWIVPPISGSLTPVFHQEMVNYILSPAFRYQPDPWKGSATKGAGITRKKTFKEVANAVKISASLMGTLMAKRVKATILYASETGRAQSYAQQLGRLFRKAFDPRVLCMDEYDVVSLEHEALVLVVTSTFGNGDPPENGESFAAALMEMSGPYNSSPRPEQHKSYKIRFNSVSCSDPLVSSWRRKRKESSNTDSAGALGTLRFCVFGLGSRAYPHFCAFARAVDTRLEELGGERLLQLGQGDELCGQEEAFRGWAKAAFQASCETFCVGEEAKAAAQDIFSPKRSWKRQRYRLSTQAEGLQLLPGLIHVHRRKMFQATVLSVENLQSSKSTRATILVRLDTAGQEGLQYQPGDHIGICPPNRPGLVEALLSRVEDPPPPTESVAVEQLEKGSPGGPPPSWVRDPRLPPCTLRQALTFFLDITSPPSPRLLRLLSTLAEEPSEQQELETLSQDPRRYEEWKWFRCPTLLEVLEQFPSVALPAPLLLTQLPLLQPRYYSVSSAPNAHPGEVHLTVAVLAYRTQDGLGPLHYGVCSTWLSQLKTGDPVPCFIRGAPSFRLPPDPYVPCILVGPGTGIAPFRGFWQERLHDIESKGLQPAPMTLVFGCRCSQLDHLYRDEVQDAQERGVFGRVLTAFSREPDSPKTYVQDILRTELAAEVHRVLCLERGHMFVCGDVTMATSVLQTVQRILATEGDMELDEAGDVIGVLRDQQRYHEDIFGLTLRTQEVTSRIRTQSFSLQERHLRGAVPWAFDPPGPDTPGP | 5.5±0.8 | 2 | – | –
S1179D: bovine eNOS with serine 1179 mutated to aspartic acid (protein) GNLKSVGQEPGPPCGLGLGLGLGLCGKQGPASPAPEPSRAPAPATPHAPDHSPAPNSPTLTRPPEGPKFPRVKNWELGSITYDTLCAQSQQDGPCTPRCCLGSLVLPRKLQTRPSPGPPPAEQLLSQARDFINQYYSSIKRSGSQAHEERLQEVEAEVASTGTYHLRESELVFGAKQAWRNAPRCVGRIQWGKLQVFDARDCSSAQEMFTYICNHIKYATNRGNLRSAITVFPQRAPGRGDFRIWNSQLVRYAGYRQQDGSVRGDPANVEITELCIQHGWTPGNGRFDVLPLLLQAPDEAPELFVLPPELVLEVPLEHPTLEWFAALGLRWYALPAVSNMLLEIGGLEFSAAPFSGWYMSTEIGTRNLCDPHRYNILEDVAVCMDLDTRTTSSLWKDKAAVEINLAVLHSFQLAKVTIVDHHAATVSFMKHLDNEQKARGGCPADWAWIVPPISGSLTPVFHQEMVNYILSPAFRYQPDPWKGSATKGAGITRKKTFKEVANAVKISASLMGTLMAKRVKATILYASETGRAQSYAQQLGRLFRKAFDPRVLCMDEYDVVSLEHEALVLVVTSTFGNGDPPENGESFAAALMEMSGPYNSSPRPEQHKSYKIRFNSVSCSDPLVSSWRRKRKESSNTDSAGALGTLRFCVFGLGSRAYPHFCAFARAVDTRLEELGGERLLQLGQGDELCGQEEAFRGWAKAAFQASCETFCVGEEAKAAAQDIFSPKRSWKRQRYRLSTQAEGLQLLPGLIHVHRRKMFQATVLSVENLQSSKSTRATILVRLDTAGQEGLQYQPGDHIGICPPNRPGLVEALLSRVEDPPPPTESVAVEQLEKGSPGGPPPSWVRDPRLPPCTLRQALTFFLDITSPPSPRLLRLLSTLAEEPSEQQELETLSQDPRRYEEWKWFRCPTLLEVLEQFPSVALPAPLLLTQLPLLQPRYYSVSSAPNAHPGEVHLTVAVLAYRTQDGLGPLHYGVCSTWLSQLKTGDPVPCFIRGAPSFRLPPDPYVPCILVGPGTGIAPFRGFWQERLHDIESKGLQPAPMTLVFGCRCSQLDHLYRDEVQDAQERGVFGRVLTAFSREPDSPKTYVQDILRTELAAEVHRVLCLERGHMFVCGDVTMATSVLQTVQRILATEGDMELDEAGDVIGVLRDQQRYHEDIFGLTLRTQEVTSRIRTQDFSLQERHLRGAVPWAFDPPGPDTPGP | – | – | significant increase in activity | partially mimics the activation state induced by Akt

Reference: patent US7888089B2, “eNOS mutations useful for gene therapy and therapeutic screening” (Yale University, priority 1999, dated 2011)
